Source: patent publication CN114456264A (INST OF MICROBIOLOGY OF CHINESE ACADEMY OF SCIENCES, dated 2022)

Biological target: SARS-CoV RBD蛋白 (SARS-CoV, UniProt P59594 306-527)
Assay: SPR, Biacore 8K, RBD on SA chip, antibody as analyte

B1: 抗体IMCAS-364 (antibody, V domains shown)
VH: QVQLQESGGGVVQPGRSLRLSCAASGFTFSRYGMHWVRQAPGKGLEWVAVIWYDGSNKYYADSVKGRFTISRDNSKNTLYLQMNSLRADDTAVYYCAKQEGTYCSGGSCYSGLDYWGQGTLVTVSS
VL: not shown
Kd: 8.17 nM
